According to the DeepSol protein solubility set:

Experiment: soluble on expression in E. coli; label from the status in PepcDB or PDB records

MGDIMLIILTGLPGVGKSTFSKNLAKILSKNNIDVIVLGSDLIRESFPVWKEKYEEFIKKSTYRLIDSALKNYWVIVDDTNYYNSMRRDLINIAKKYNKNYAIIYLKASLDVLIRRNIERGEKIPNEVIKKMYEKFDEPGKKYKWDEPFLIIDTTKDIDFNEIAKKLIEKSKEIPKFYVLEENKNKNNNISDKIDKETRKIVSEYIKSKKLDKDKIKEVVELRKEFLKKIKKMEEVDADRVLKEFKDLLNSYLEHHHHHH
soluble on expression in E. coli: soluble

MGSDKIHHHHHHMISMKPRYKPDWESLREHTVPKWFDKAKFGIFIHWGIYSVPGWATPTGELGKVPMDAWFFQNPYAEWYENSLRIKESPTWEYHVKTYGENFEYEKFADLFTAEKWDPQEWADLFKKAGAKYVIPTTKHHDGFCLWGTKYTDFNSVKRGPKRDLVGDLAKAVREAGLRFGVYYSGGLDWRFTTEPIRYPEDLSYIRPNTYEYADYAYKQVMELVDLYLPDVLWNDMGWPEKGKEDLKYLFAYYYNKHPEGSVNDRWGVPHWDFKTAEYHVNYPGDLPGYKWEFTRGIGLSFGYNRNEGPEHMLSVEQLVYTLVDVVSKGGNLLLNVGPKGDGTIPDLQKERLLGLGEWLRKYGDAIYGTSVWERCCAKTEDGTEIRFTRKCNRIFVIFLGIPTGEKIVIEDLNLSAGTVRHFLTGERLSFKNVGKNLEITVPKKLLETDSITLVLEAVEE
soluble on expression in E. coli: not soluble

MGSDKIHHHHHHMNIFDNILSSATIFKNRDVLRHSYTPEKLPHREEQINQLALLLSPMLRGGTPSNIFIYGKTGTGKTATVLFVARQLEEASRKAKLNVAVHYINCEIVDTAYRVLASLARKFGSNVPMTGWPTDQVYEEVKKALERRGTRVVVILDEIDKLVKKAEEALYGLTRINSELENSSICIVGISNNLKFKEYLDARILSSLSEEEIVFPPYNAEQLEDILQQRAKLAFEDGVLEDGVIQLCAAIAAQEHGDARKALDLLRVSAEIAERERDSMVRVEHVKKAVRKIETDYMIETVRTLPVHSKILLYSMSLISENSPKFTTGEVYCVYKKLCGKVGVDPLTQRRISDLISELDMLGILNSVVISKGRYGRTREMKLEADEKVLRKALEEDYRLQNLRKFEGELKKLANLNLFQF
soluble on expression in E. coli: not soluble

MSQMAQSLRSQFATDKQVLQKFLNLDQKGMYQALYIWIDGSGENIRAKTRTFDFEPTDPEKLPIWNFDGSSTGQAEGADSDVYLKPVAIYPDPFRQGKNKLVMCETYDNKKKPTATNYRQRCKEVMEKAADQHPWFGMEQEYTLLDIDGHPFGWPKNGFPGPQGPYYCGVGANKVYGRDIVEAHYRACLYAGIQISGTNAEVMPGQWEFQVGPCEGIQMGDQLWVARYLLQRVAEEFGVIASFDCKPIKGDWNGAGCHTNFSTDKMRNPGGIDEIMSAINKLSLVHPQHIAYYDPHGGKDNERRLTGLHETASIDKFSYGVASRASSIRIPRSTDDDGYGYFEDRRPSSNCDPYTVTGALVRTVCLEGAERKLSMMYVPSQAPNITKH
soluble on expression in E. coli: not soluble

MSTQPSHPSSSNDLDSSIGTARIEVVSVPVKPRNKFSTTPVKRVEMKKSKESDSVDKALKVKSSLDCMKLEKPAPTTCEMKAA
soluble on expression in E. coli: soluble

MLSKRLLNFESFEVMDILALAQKLESEGKKVIHLEIGEPDFNTPKPIVDEGIKSLKEGKTHYTDSRGILELREKISELYKDKYKADIIPDNIIITGGSSLGLFFALSSIIDDGDEVLIQNPCYPCYKNFIRFLGAKPVFCDFTVESLEEALSDKTKAIIINSPSNPLGEVIDREIYEFAYENIPYIISDEIYNGLVYEGKCYSAIEFDENLEKTILINGFSKLYAMTGWRIGYVISNDEIIEAILKLQQNLFISAPTISQYAALKAFEKETEREINSMIKEFDRRRRLVLKYVKDFGWEVNNPIGAYYVFPNIGEDGREFAYKLLKEKFVALTPGIGFGSKGKNYIRISYANSYENIKEGLERIKEFLNK
soluble on expression in E. coli: soluble

MEIKDTYNIGELSPGMTATFEGEVISALPIKEFKRADGSIGKLKSFIVRDETGSIRVTLWDNLTDIDVGRGDYVRVRGYIREGYYGGLECTANYVEILKKGEKIESLEHHHHHH
soluble on expression in E. coli: not soluble

MCGQKFELKIDNVRFVGHPTLLQHALGQISKTDPSPKREAPTMILFNVVFALRANADPSVINCLHNLSRRIATVLQHEERRCQYLTREAKLILALQDEVSAMADGNEGPQSPFHHILPKCKLARDLKEAYDR
soluble on expression in E. coli: not soluble

IDRMDRFALRFRALQNQYEQHKSPMRGLCGMRAGLIPHQLFIAHEVGRRYAPRVLLADEVGLGKTIEAGMIIHQQVLSGRAERVLIVVPETLQHQWLVEMMRRFNLHFSIFDEERCVEAYADSENPFDTAQFVLCSLDFIRKSKRRFEQVVEADWDLLVVDEAHHLEWNQTKPSREYQVIEAIAEETPGVLLLTATPE
soluble on expression in E. coli: not soluble

MSKAFVDGLLQSSKVVVFSKSYCPYCHKARAALESVNVKPDALQWIEIDERKDCNEIQDYLGSLTGARSVPRVFINGKFFGGGDDTAAGAKNGKLAALLKETGAL
soluble on expression in E. coli: not soluble

MGSDKIHHHHHHMKRAVGDLIEETMDIVLANPRGFCAGVDRAIIIVEQALEKFGAPIYVRHEVVHNKFVVDDLKKKGAIFVEELDEVPAGNTVIFSAHGVSKDVRAEAEARGLQVFDATCPLVTKVHLEVAKMRASGKEIIMIGHKGHPEVEGTMGQAEGGMYLVESPEDVAMLEVKDPSQLAYVTQTTLSIDDAAAIVSALKAKFPEITPPRSDSICYATQNRQDAVKVMARDCDLVIVVGSPNSSNSNRLREVAQNQGVESYMVDNASFLDPAWIVGKKRIGVSAGASAPEVLVQEVINKLRALGAADVQELNGVVENVVFKIPRNLAEA
soluble on expression in E. coli: not soluble

MSTQLATSMEIIRKSLRKAAEDVLHINSKNAISNEVDSEEFKETLMKDAMKLMELETEGAQMQHIFEALHNDLKDGSDEVPNEKALEELYEKAKKTHKNVKGERQYFKDIIKSIRDESKNDENEMEVMQVQHSRKDPISKKDIVNPVISKNCGHVYDRDSIHEFAGKKRVIKCAMQGCSETINIGQLADYPDYWTNIKQQQ
soluble on expression in E. coli: not soluble

MLRIAKEALTFDDVLLVPAHSTVLPNTADLSTQLTKTIRLNIPMLSAAMDTVTEARLAIALAQEGGIGFIHKNMSIERQAEEVRRVKKHESGVVTDPQTVLPTTTLHEVKALTERNGFAGYPVVTEDNELVGIITGRDVRFVTDLNQPVSVYMTPKERLVTVREGEAREVVLAKMHEKRVEKALVVDDNFHLLGMITVKDFQKAERKPNSCKDEQGRLRVGAAVGAGAGNEERVDALVAAGVDVLLIDSSHGHSEGVLQRIRETRAKYPDLQIIGGNVATGAGARALAEAGCSAVKVGIGPGSICTTRIVTGVGVPQITAVSDAVEALEGTGIPVIADGGIRFSGDIAKAIAAGASAVMVGSMLAGTEESPGEIELYQGRSYKSYRGMGSLGAMSKGSSDRYFQSDNAADKLVPEGIEGRVAYKGRLKEIIHQQMGGLRSCMGLTGCATIDELRTKAEFVRISGAGIQESHVHDVTITKESPNYRLGS
soluble on expression in E. coli: not soluble

MGSDKIHHHHHHMNNIFLILGCAKQRWQDLEIICEYVKKTYSLTTMLMVNKAHKEFYSVCDQVIEVDLSDQNFIALASRLLSEQKVSGGLLFADQALLHGTKLFEQLGIVCDNSELGINSYSKLEFRRQEKRYFSHAAKTHYFVPEFSKVNSLQDVHAFAVKYPDGFILKPISEGGSRGVLKLHAQSDFGAAYKQVECYQADGLMCEQLIPTFREFSFDGVGDISFITEKLVATGAHPVEVGQIVPAELTCDSAEKISAHGRLMNLWVGQQLGAFHNEIAYLESQGSTAAIESNRRSGGMGIWNLAEKVFGENLFHRWVDVAMGQTVEHIPLNATGKAMSCMLGSRENLIDDLTMITAQIQEVLAFELGPDIELFSLRWLHTQPHMLPSIPQSNFDFLAEACIYCAHFDLSNQALYERVQRAWDKCLYIGMKEEKCA
soluble on expression in E. coli: not soluble

MDNELTSRPDSIMDTEPTTLPDSAMDTKPTNLPDFPSTSQEPVSRRTRSRTLSDNSNAVWKRERRSRETSQESESRLRMDWERKKEKRASMSEEEKAEMKYKKRVWMKKKRNEVAKTHDTSSVANPNYLGSMRCVCKNCNARFFQGIHFFKV
soluble on expression in E. coli: not soluble

MGSDKIHHHHHHMSDAAIAQDLAALAAQLQTLAGLQGKRDIQAAAASLPHRPFPKLGLAAALGDDAALLPATANRLLFACEGIHPDLVAEDPWFAGWSGVLVNLSDIAAMGGRPIAVVNSLWSRDRQHADQVFAGLQFAAEKFGIPIVGGHSNLQSPYSALSVAVLGQVGPHVLSARSAQAGDRCYLLINRDGQFYRHYPFWDAATGTAPEQLRRHWELMAQLADAGLVSAAKDVSMGGLIGTAVMFAETSGAGLDLHLDRLSYPAGVSRDRWLTCFPSFGFLLAVPEACCDRFLQRVATEPDLTCDHLGSFTNTGQVRLCDRQAQVCFWDCQEQSLMGFSALTDPESPH
soluble on expression in E. coli: not soluble

MADRANNDDDVDRQPLPIADDADDDVDGIDEMFNNEDEDPEDEEGENLFGDDMERDYREQPELDQYSESGMDDASDVGSLSVSARRAAEREMAQRDQLLDDDALMYEDGDSEEVDTRRRGRGRRGRGDAADDDSVPMEEEDIPVDILENIRGRTIRDHVSDEAVAKEIERRFKNFLRSFHEPGNKQTKYIQMIKSMAADNRESLEVSFTDLSDDNGEQNISYFLPEAPNEMLAIMDRAATEVVMNMYPFYSRVCNEIKVRISQLPVEEDIRMLRQVHLNMLIRTAGVVTIASGILPQLAVVKYDCVACGYLLGPFVQQNDEEVRPTICPSCQGKGPFELNVENTVYHNYQRITMQESPNKVAAGRLPRSKDVILLGDLCDSCKPGDEIEVTGVYTNNFDGSLNYKQGFPVFNTLIHANHITNKDKMASDQLTDEDIKAIRELSQDPNISQRVFSSIAPSIYGHDDVKRAIALALFRGEAKNPGAKHRLRGDINVLLCGDPGTAKSQFLRYAAHIAPRSVLTTGQGASAVGLTAYVQRHPVTREWTLEAGAMVLADKGVCLIDEFDKMSDQDRTSIHEAMEQQSISISKAGIVTSLHARCTVIAASNPIGGRYNPTRTFAENVDLTEPILSRFDVLCVIRDSVDSVEDERLAKFVVGNHRTHHPDAKKIVKEGDELEEDQMDERTGVRLIPQDLLRKYIIYAREKCHPTLPEQHSEKFSNIFAQMRKESMATGSVAITVRHVESMIRLSEAHAKLHLRSYVNDEDCAAAIRVMLESFVNTQKASIMRMMKKTFSRHLTENRSANELLLFILKQLIRQQMHYATARAAAGTILQSVTIPESEFIEKAQQLRIENVKPFYTSEIFASNNFLYDPSKKTIVQEIF
soluble on expression in E. coli: not soluble

MAHHHHHHMSGEVDFWSATIAAYQPLQLTSPELTPKLLKRPPFRFIHDIVCSIDARFAAYDHIIPAELRDSAQVDTKEKKIEYLTTLIQYINRIMKVEIDVNPKKIVSGNEPEKTNIFLQYLAAGVGYAQQDKAAQATPAPQQKSAASLASPASPAAASFSTNPAQDNLSLSLASGLCRKKSSSRDPAERRRSHVSVFDEAAKFNRKLSGYSLNLNLDEQRDVRSEGQSIVRMWNELANPQTETKPSHMPQEALETAIKRQIETVKMVQELLSENDRVIDKLEALVI
soluble on expression in E. coli: not soluble

MIIRIVQNIQRINKEGNAPLYISFYLGKEKVVIPCKLSVPTTKFDSKTGMLRGTNKEAKDINLIIERLKAKVNDILVKHRLKNLTLNKEAFMREYNNPSDFKSFHDFVASYMKTYSRRLEIGTFRHHKSCMRKFKEYCEGLQFHELTEDFLRDYLIYMKKTLCNADSTAQRNLSTIKIYVSAAIKKGYMENDPFKDFGVKRIKSNIDYLTEEELIKFISLYYDRRLPERLERTLGFFLFMCFTSLHISDARHVCLEQINNGILTYYRIKNRNCKPEAIKIPLSIPAFKIIEELQGKRKEGH
soluble on expression in E. coli: not soluble

MRGSGPRDRGSNPRPATTPTALSYISLPTSDSTRWGGLAVARARGVVLGYRRGTNTQYPQHALVKLLLDDPRKAGLYVSGIAFYRDRYGNVYKGRVLRLHGRRGGVVVVKFNPPLPGQATGGVVEVVKAGGDGLEHHHHHH
soluble on expression in E. coli: not soluble
